± gives the standard error. For some of these results: Fewer inactive variants are shown than the library holds.
B1: glmS ribozyme (parent)
chain: AUAAAAGCGCCAGAACUACAGAAAUGUAGUUGACGAGGAGGAGGUUUAUCGAAUUUUCGGCGGAUGCCUCCAAA

Legend:
Settings in all cases: with glucosamine-6-phosphate
glucosamine-6-phosphate [1] = variants of: B1; assay: kcat; higher = faster cleavage; RNA array
How it was run: (§1)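 Tracking of barcoded ribozyme variants used a hybridised Cy3 probe at 37 °C, after in situ transcription by E. coli RNA polymerase on sequenced MiSeq chips. The flowed solution held 40 μM to 10 mM glucosamine-6-phosphate in HEPES/KCl/Mg(OAc)2 buffer, and imaging ran over ~14 h. kobs was taken from exponential decay fits of normalised per-tile medians, and kcat and KM from weighted Michaelis–Menten fits.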

glucosamine-6-phosphate [2] = variants of: B1; assay: self-cleavage kobs at 40 uM GlcN6P; higher = faster cleavage; RNA array
How it was run: as §1

glucosamine-6-phosphate [3] = variants of: B1; assay: self-cleavage kobs at 160 uM GlcN6P; higher = faster cleavage; RNA array
How it was run: as §1

glucosamine-6-phosphate [4] = variants of: B1; assay: self-cleavage kobs at 640 uM GlcN6P; higher = faster cleavage; RNA array
How it was run: as §1

glucosamine-6-phosphate [5] = variants of: B1; assay: self-cleavage kobs at 2500 uM GlcN6P; higher = faster cleavage; RNA array
How it was run: as §1

glucosamine-6-phosphate [6] = variants of: B1; assay: self-cleavage kobs at 10000 uM GlcN6P; higher = faster cleavage; RNA array
How it was run: as §1

glucosamine-6-phosphate [7] = variants of: B1; assay: KM; higher = weaker cofactor use; RNA array
How it was run: as §1

Variant | kcat (glucosamine-6-phosphate [1]) [s⁻¹] | self-cleavage kobs at 40 uM GlcN6P (glucosamine-6-phosphate [2]) [s⁻¹] | self-cleavage kobs at 160 uM GlcN6P (glucosamine-6-phosphate [3]) [s⁻¹] | self-cleavage kobs at 640 uM GlcN6P (glucosamine-6-phosphate [4]) [s⁻¹] | self-cleavage kobs at 2500 uM GlcN6P (glucosamine-6-phosphate [5]) [s⁻¹] | self-cleavage kobs at 10000 uM GlcN6P (glucosamine-6-phosphate [6]) [s⁻¹] | KM (glucosamine-6-phosphate [7]) [µM]
G29A C67A | 0.00104 ± 0.00036 | 2.96e-05 ± 8.8e-06 | 0.000165 ± 3.2e-05 | 0.000205 ± 3.9e-05 | 0.0005 ± 9.3e-05 | 0.00099 ± 0.00013 | 
U45A U54A | 0.115 ± 0.045 | 0.00179 ± 0.00033 | 0.00611 ± 0.0017 | 0.0204 ± 0.0069 | 0.122 ± 0.049 | 0.0819 ± 0.035 | 2630 ± 1200
A33C U55C | < 1e-05 | < 1e-05 | < 1e-05 | < 1e-05 |  |  | 
C50U U56G | 1.91e-05 ± 1.3e-06 |  | < 1e-05 |  |  |  | 829 ± 360
G43A C68A | 2.1e-05 ± 8.5e-06 |  |  |  |  |  | 
C10U G60A | 1.02e-05 ± 1.8e-06 | < 1e-05 |  |  |  |  | 
U30C G37C C70U | 1.63e-05 ± 2e-06 |  |  |  |  |  | 
U56A C67A | 0.00827 ± 0.0033 | 0.000132 ± 1.3e-05 | 0.000294 ± 4.8e-05 | 0.00132 ± 0.00016 | 0.00323 ± 0.00075 | 0.00678 ± 0.0011 | 3230 ± 1600
G40C C71A | 0.00654 ± 0.0028 | 0.000225 ± 3.8e-05 | 0.000451 ± 6.2e-05 | 0.00213 ± 0.00024 |  | 0.00527 ± 0.00096 | 
A15U U45G | 0.000918 ± 0.00015 |  | 5.29e-05 ± 1e-05 | 0.000248 ± 3.2e-05 | 0.000552 ± 8.4e-05 | 0.000705 ± 9.6e-05 | 2150 ± 560
A39C U69C | 0.000195 ± 3.5e-05 |  |  | 6.94e-05 ± 1.8e-05 | 0.000211 ± 3.5e-05 | 0.000166 ± 1.9e-05 | 
A12C G60A | < 1e-05 |  | < 1e-05 | < 1e-05 |  |  | 
A6U C58G | < 1e-05 | < 1e-05 |  |  |  | < 1e-05 | 
A6C G66A | 8.29e-05 ± 2.9e-06 |  |  |  | 3.57e-05 ± 1.3e-05 | 6.22e-05 ± 1.2e-05 | 3320 ± 320
A15U G37C C70G | 2.75e-05 ± 1.1e-05 |  |  |  |  |  | 
C11U G29C | 0.00018 ± 9.3e-06 |  |  | 4.1e-05 ± 1.1e-05 | 0.000109 ± 1.3e-05 | 0.00015 ± 1.2e-05 | 1860 ± 290
A14U U57A | 6.85e-05 ± 3.9e-06 |  |  |  | 3.51e-05 ± 1e-05 | 5.69e-05 ± 7.6e-06 | 2120 ± 440
U30A U49A C68A C71G | 4.8e-05 ± 2.1e-05 |  |  | 7.12e-05 ± 2.8e-05 |  |  | 
G35C A52G | < 1e-05 |  | < 1e-05 | < 1e-05 |  | < 1e-05 | 
G9A A12C | < 1e-05 |  |  | < 1e-05 |  |  | 

Variant | kcat (glucosamine-6-phosphate [1]) [s⁻¹] | self-cleavage kobs at 40 uM GlcN6P (glucosamine-6-phosphate [2]) [s⁻¹] | self-cleavage kobs at 160 uM GlcN6P (glucosamine-6-phosphate [3]) [s⁻¹] | self-cleavage kobs at 640 uM GlcN6P (glucosamine-6-phosphate [4]) [s⁻¹] | self-cleavage kobs at 2500 uM GlcN6P (glucosamine-6-phosphate [5]) [s⁻¹] | self-cleavage kobs at 10000 uM GlcN6P (glucosamine-6-phosphate [6]) [s⁻¹] | KM (glucosamine-6-phosphate [7]) [µM]
G13A G32A | 0.00473 ± 0.0013 | 4.73e-05 ± 7.3e-06 | 0.000204 ± 6.5e-05 | 0.000518 ± 0.00011 | 0.00129 ± 0.00022 | 0.00362 ± 0.00047 | 4730 ± 1900
C70G C71G | 3.62e-05 ± 7e-06 |  | 3.85e-05 ± 1.4e-05 | 5.98e-05 ± 1.4e-05 | 3.62e-05 ± 9.7e-06 | 2.86e-05 ± 7.6e-06 | 
C50A C61G | 2.25e-05 ± 7e-06 |  |  |  |  |  | 
C50A C67U | 1.84e-05 ± 4e-06 |  |  |  |  |  | 
A39C A64U | 1.4e-05 ± 2.1e-06 |  |  |  |  |  | 
G41U C71A | 0.000252 ± 2.1e-05 |  | 5.27e-05 ± 9.4e-06 | 0.000128 ± 1.2e-05 | 0.000235 ± 2.8e-05 | 0.000219 ± 2.8e-05 | 604 ± 120
U47A G59A | 8.22e-05 ± 1.1e-05 | < 1e-05 |  |  | 3.14e-05 ± 1.2e-05 | 6.07e-05 ± 1.8e-05 | 3740 ± 1100
A42G C70U | 0.0228 ± 0.01 | 0.000696 ± 0.0001 | 0.00157 ± 0.00029 | 0.00975 ± 0.0019 | 0.0261 ± 0.01 | 0.0178 ± 0.0045 | 
A48U C50G G59U G66U | 1.53e-05 ± 4.3e-06 |  | < 1e-05 |  |  |  | 
U57A G60U | < 1e-05 | < 1e-05 | < 1e-05 | < 1e-05 |  | < 1e-05 | 
U30G C50A | < 1e-05 | < 1e-05 |  |  |  |  | 
A6U A15G U30C | 0.000345 ± 9.4e-05 |  |  | 5.44e-05 ± 2e-05 | 0.00023 ± 6.3e-05 | 0.000255 ± 5.8e-05 | 
A39U G60A | 2.79e-05 ± 2e-06 |  | < 1e-05 |  |  |  | 5820 ± 1100
C58U C61G | 3.19e-05 ± 9.4e-06 |  |  | 5.03e-05 ± 1.4e-05 | 2.9e-05 ± 1.3e-05 |  | 
G51U U56C | < 1e-05 | < 1e-05 | < 1e-05 | < 1e-05 |  |  | 
G63A U69G | 6.54e-05 ± 2.8e-05 |  | 8.37e-05 ± 2.7e-05 | 0.000116 ± 3.3e-05 | 5.94e-05 ± 2.5e-05 |  | 
C61A C70U | 1.28e-05 ± 2.9e-06 |  |  |  |  |  | 
G32C | 0.000139 ± 1.7e-06 |  |  | 2.26e-05 ± 1.4e-06 | 5.77e-05 ± 1.3e-06 | 0.000103 ± 1.4e-06 | 3460 ± 110
G29U U47C | 0.000228 ± 1.3e-05 |  | 4.21e-05 ± 1.6e-05 | 8.08e-05 ± 1.4e-05 | 0.00017 ± 2.9e-05 | 0.000206 ± 1.8e-05 | 1050 ± 180
